This note sets out measurements from patent US20170081409A1 (AGENUS, published 2017).

This test concerns the target T1, human PD-1 expressed by activated (SEA-stimulated) primary human CD4+ T cells (human, UniProt Q15116 25-288).
T1 construct: whole, on cells; also called programmed cell death protein 1
Put plainly: flow cytometry on SEA-stimulated human PBMC, CD4+ gate. Here is the method:
The anti-PD-1 antibodies AGEN2046w, AGEN2047w, and AGEN2034w were examined for binding to activated peripheral blood mononuclear cells (PBMCs) by flow cytometry. Cryopreserved human PBMCs prepared from unpurified buffy coats (Research Blood Components, Catalog number (Cat#) 002) or cryopreserved cynomolgus PBMCs (Worldwide Primates Inc., customer order) were plated at 10⁵ cells/well in RPMI1640 medium supplemented with Normocin™ (InvivoGen, Cat#ant-nr-1) and 10% heat-inactivated FBS (Gibco, Cat#16140063) in 96-well NUNCLON delta surface plates (NUNC™). The cells were cultured in the presence of 100 ng/ml of Staphylococcus Enterotoxin A (SEA; for human PBMCs) (Toxin Technologies, Cat#at101red) or Staphylococcus Enterotoxin B (SEB; for cynomolgus PBMCs) (Toxin Technology, Cat#bt202red) for 5 days at 37° C., 5% CO₂, and 97% humidity. […] The cells were washed twice with sample buffer and then resuspended in sample buffer and analyzed with a FACS Fortessa cytometer (Becton Dickinson). CD4+ T cells were gated and the mean fluorescence intensity (MFI) was recorded.
The binding of AGEN2034w to activated primary human T cells was measured again in a similar assay. […] Cells were analyzed with a FACS Fortessa cytometer (Becton Dickinson). CD4+ T cells were gated and the mean fluorescence intensity (MFI) of AGEN2034w-positive cells was determined.
Background: Flow cytometry measures light scatter and fluorescence of single cells or particles in a stream.

T1 sequence (Q15116 25-288): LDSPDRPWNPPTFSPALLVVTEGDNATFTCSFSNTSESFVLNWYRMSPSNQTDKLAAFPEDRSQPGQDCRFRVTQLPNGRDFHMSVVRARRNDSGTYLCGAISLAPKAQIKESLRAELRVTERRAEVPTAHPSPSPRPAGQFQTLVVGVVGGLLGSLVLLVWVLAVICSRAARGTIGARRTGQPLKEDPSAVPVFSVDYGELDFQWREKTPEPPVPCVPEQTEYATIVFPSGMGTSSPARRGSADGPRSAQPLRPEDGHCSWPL

B1: AGEN2046w (antibody, human IgG1, kappa, V domains shown)
VH: QVQLVESGGGVVQPGRSLRLSCAASGFTFSSYGMHWVRQAPGKGLEWVAVIWYDGSNKYYADSVKGRFTISRDNSKNTLYLQMNSLRAEDTAVYYCASNVDYWGQGTLVTVSS
VL: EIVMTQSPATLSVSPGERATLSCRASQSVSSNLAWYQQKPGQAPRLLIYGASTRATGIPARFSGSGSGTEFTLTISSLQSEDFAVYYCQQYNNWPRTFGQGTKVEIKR
Take B1: the binding result was “binds”.
